Experiments:
[1] = target: SARS-CoV-2 RBD-Fc fusion protein (SARS-CoV-2, UniProt P0DTC2); test: ELISA; conditions: both partners purified
[2] = target: SARS-CoV-2 RBD without the Fc fragment (SARS-CoV-2, UniProt P0DTC2); test: ELISA; conditions: both partners purified

B1: nCoVFab1 (Fab, V domains shown)
VH: QVQLVESGGGLVQPGGSLRLSCAASGFTVSSNYMSWVRQAPGKGLEWVSVIYSGGSTYYADSVKGRFTISRDNSKNTLYLQMNSLRAEDTAVYYCARGDGSDDYYYGMDVWGQGTTVTVSS
VL: QSVVTQPPSVSGAQGQRVFISCTGNGANIGMGYDVHWYQQLPGRAPKLLIFGNTNRPSGVPDRFSASRSGTSASLAITGLQTADEADYYCQSYDGNLRASVFGGGTKLTVL
notes: source: E. coli strain HB2151, purified (nickel-nitrilotriacetic acid resin)
**Q.** How did the EC50 [1] turn out when B1 was run?
**A.** ~16 nM

B2: nCoVFab2 (Fab, V domains shown)
VH: EVQLVQSGGGVVQPGRSLRLSCAASGFTVSSNYMSWVRQAPGKGLEWVSVIYSGGSTYYADSVKGRFTISRDNSKNTLYLQMNSLRAEDTAVYYCARGDGSDDYYYGMDVWGQGTTVTVSS
VL: QAVLTQPSSVSGAPGQRVTISCTGSSSNVGAGYDVHWYQQLPGTAPKLLIYGNSNRPSGVPDRFSGSKSGTSASLAITGLQAEDEADYYCQSYDSSLSGSVFGGGTKLTVL
notes: as for B1
**Q.** B2 was tested. Which EC50 [1] did it give?
**A.** ~63 nM

B3: nCoVmab1 (antibody, V domains shown)
VH: QVQLVESGGGLVQPGGSLRLSCAASGFTVSSNYMSWVRQAPGKGLEWVSVIYSGGSTYYADSVKGRFTISRDNSKNTLYLQMNSLRAEDTAVYYCARGDGSDDYYYGMDVWGQGTTVTVSS
VL: QSVVTQPPSVSGAQGQRVFISCTGNGANIGMGYDVHWYQQLPGRAPKLLIFGNTNRPSGVPDRFSASRSGTSASLAITGLQTADEADYYCQSYDGNLRASVFGGGTKLTVL
notes: also called nCoVFab1 in IgG1 format; source: 293F cells, purified (Protein A resin)
**Q.** B3 was tested. Which EC50 [2] did it give?
**A.** 0.56 nM

B4: nCoVmab1gFR (antibody, V domains shown)
VH: EVQLVESGGGLVQPGGSLRLSCAASGFTVSSNYMSWVRQAPGKGLEWVSVIYSGGSTYYADSVKGRFTISRDNSKNTLYLQMNSLRAEDTAVYYCARGDGSDDYYYGMDVWGQGTTVTVSS
VL: QSVVTQPPSVSGAPGQRVTISCTGSGANIGMGYDVHWYQQLPGTAPKLLIYGNTNRPSGVPDRFSGSKSGTSASLAITGLQAEDEADYYCQSYDGNLRASVFGGGTKLTVL
**Q.** Does B4 bind [2]?
**A.** binds

B5: nCoVmab2 (antibody, V domains shown)
VH: EVQLVQSGGGVVQPGRSLRLSCAASGFTVSSNYMSWVRQAPGKGLEWVSVIYSGGSTYYADSVKGRFTISRDNSKNTLYLQMNSLRAEDTAVYYCARGDGSDDYYYGMDVWGQGTTVTVSS
VL: QAVLTQPSSVSGAPGQRVTISCTGSSSNVGAGYDVHWYQQLPGTAPKLLIYGNSNRPSGVPDRFSGSKSGTSASLAITGLQAEDEADYYCQSYDSSLSGSVFGGGTKLTVL
notes: also called nCoVFab2 in IgG1 format; source: 293F cells, purified (Protein A resin)
**Q.** With B5 as the binder, how does the EC50 [2] read?
**A.** 0.84 nM

B6: nCoVmab1_(gHgL) (antibody, V domains shown)
VH: EVQLVESGGGLVQPGGSLRLSCAASGFTVSSNYMSWVRQAPGKGLEWVSVIYSGGSTYYADSVKGRFTISRDNSKNTLYLQMNSLRAEDTAVYYCARGDGSYYYYYGMDVWGQGTTVTVSS
VL: QSVVTQPPSVSGAPGQRVTISCTGSSSNIGAGYDVHWYQQLPGTAPKLLIYGNSNRPSGVPDRFSGSKSGTSASLAITGLQAEDEADYYCQSYDSSLSGWVFGGGTKLTVL
**Q.** Does B6 bind [2]?
**A.** no binding

B7: nCoVmab1_(gHmL) (antibody, V domains shown)
VH: EVQLVESGGGLVQPGGSLRLSCAASGFTVSSNYMSWVRQAPGKGLEWVSVIYSGGSTYYADSVKGRFTISRDNSKNTLYLQMNSLRAEDTAVYYCARGDGSYYYYYGMDVWGQGTTVTVSS
VL: QSVVTQPPSVSGAQGQRVFISCTGNGANIGMGYDVHWYQQLPGRAPKLLIFGNTNRPSGVPDRFSASRSGTSASLAITGLQTADEADYYCQSYDGNLRASVFGGGTKLTVL
**Q.** Does B7 bind [2]?
**A.** no binding

Reference: article PMC8352940 (Nature Communications, 2021)
